Laboratory results: patent publication US20110038881A1, “PROGNOSTIC ASSAY FOR DETERMINING T CELL RESPONSE TO HLA ANTIGENS AND USE THEREOF IN FIELD OF TISSUE TRANSPLANTATION” (priority 2007, published 2011)

T1: HLA-DRB1*1301 (human)
T1 chain 1: not shown
T1 chain 2: not shown


Assays:
[1] = target: HLA-DRB1*0101 (human); assay: competition binding; conditions: modification not given
[2] = target: HLA-DRB1*0301 (human); assay: competition binding; conditions: modification not given
[3] = target: HLA-DRB1*0401 (human); assay: competition binding; conditions: modification not given
[4] = target: HLA-DRB1*0701 (human); assay: competition binding; conditions: modification not given
[5] = target: HLA-DRB1*1101 (human); assay: competition binding; conditions: modification not given
[6] = target: HLA-DRB1*1301 (human); assay: competition binding; conditions: modification not given
[7] = target: HLA-DRB1*1501 (human); assay: competition binding; conditions: modification not given
[8] = target: HLA-DRB3*0101 (human); assay: competition binding; conditions: modification not given
[9] = target: HLA-DRB4*0101 (human); assay: competition binding; conditions: modification not given
[10] = target: HLA-DRB5*0101 (human); assay: competition binding; conditions: modification not given
[11] = target: HLA-DRB4*0101 (human); assay: competition; conditions: modification not given
[12] = target: T1, HLA-DRB1*1301 (human); assay: competition assay on purified, immobilised HLA-DR against the biotinylated reference peptide, pH 4.5

| Binder | IC50 [1] [µM] | IC50 [2] [µM] | IC50 [3] [µM] | IC50 [4] [µM] | IC50 [5] [µM] | IC50 [6] [µM] | IC50 [7] [µM] | IC50 [8] [µM] | IC50 [9] [µM] | IC50 [10] [µM] | IC50 [11] [µM] | IC50 [12] [µM] |
| --- | --- | --- | --- | --- | --- | --- | --- | --- | --- | --- | --- | --- |
| GTLRGYYNQSEAGSH [p15*] | 0.406 | > 100 | 1.82 | 2.96 | 1.86 | > 100 | 0.033 | > 100 | > 100 | 0.612 |  |  |
| TSVSRPGRGEPRFIA [p3] | 0.648 | > 100 | 5.48 | 6.93 | 1.02 | > 100 | 18.7 | > 100 | > 100 | > 100 |  |  |
| APWIEQEGPEYWDGE [p10] | 13 | 49.7 | > 100 | 79.4 | 58.1 | > 100 | 51.2 | 75 | > 100 | 73.5 |  |  |
| PEYWDGETRKVKAHS [p11] | 4.95 | > 100 | 63.2 | 62.9 | 0.418 | > 100 | > 100 | > 100 | > 100 | 24.4 |  |  |
| VRFDSDAASQRMEPR [p8*] | 14 | 1.4 | 3.39 | 4.65 | 58.3 | > 100 | > 100 | 2.68 | > 100 | 3.58 |  |  |
| KDYIALKEDLRSWTA [p25] | 0.01 | 1.63 | 0.325 | 2.96 | 0.042 | 2.74 | 0.125 | 85.5 | 27.4 | 0.052 |  |  |
| RCWALSFYPAEITLT [p40] | 0.026 | 5.23 | 2 | 0.045 | 40.6 | > 100 | 0.028 | 3.97 | 4.52 | 0.812 |  |  |
| VDLGTLRGYYNQSEA [p14*] | 0.209 | > 100 | 8.83 | > 100 | 1.55 | > 100 | 0.082 | > 100 | > 100 | 11 |  |  |
| HSMRYFFTSVSRPGR [p1*] | 0.003 | 7.35 | 0.013 | 0.038 | 0.002 | 0.365 | 0.509 | > 100 | 0.193 | 0.004 |  |  |
| AEITLTWQRDGEDQT [p42] | 1.34 | > 100 | > 100 | > 100 | 6 | > 100 | 18.8 | 30 | 4.58 | 4.69 |  |  |
| SQRMEPRAPWIEQEGP [p9] | 10.8 | > 100 | > 100 | 83.7 | 15.5 | 60 | 33.2 | > 100 | > 100 | 67.1 |  |  |
| HAVSDHEATLRCWAL [p39] |  |  |  |  |  |  |  |  |  |  | 0.008 |  |
| TERVRLVTRHIYNREE (modifications not checked) [reference peptide B1 21-36] |  |  |  |  |  |  |  |  |  |  |  | 0.131 |
